Data reported in patent US9611303B2, “Modified biotin-binding protein” (Japan Tobacco Inc., priority 2009, dated 2017).
Positions count from the first letter of the chain named. Names and notes keep the numbering of the source.

B1: TM2 T78A: TM2 in which the 78th threonine was replaced with alanine; SEQ ID NO: 10 (protein)
chain: MSDVQSSLTGTWYNELNSKMELTANKDGTLTGKYLSKVGDVYVPYPLSGRYNLQPPAGQGVALGWAVSWENSKIHSAATWSGQFFSESSPVILTQWLLSSSTARGDVWESTLVGNDSFTKTAPTEQQIAHAQLHCRAPRLK
modifications: Synthetic TM2 T78A
B2: WT-TM2: wild-type tamavidin 2, protein comprising the amino acid sequence SEQ ID NO: 2, from Pleurotus cornucopiae (protein, listed as Pleurotus cornucopiae)
chain: B1 chain with A78T
B3: TM2 S36A-D116A: TM2 with 36th serine and 116th aspartic acid replaced with alanine; SEQ ID NO: 20 (protein)
chain: B1 chain with S36A, A78T, D116A
modifications: Synthetic TM2 S36A-D116A
B4: TM2 S36A-T78A-D116A: TM2 with 36th serine, 78th threonine and 116th aspartic acid replaced with alanine; SEQ ID NO: 8 (protein)
chain: B1 chain with S36A, D116A
modifications: Synthetic TM2 S36A-T78A-D116A
B5: TM2 D40N: TM2 having modification of the 40th aspartic acid to asparagine (protein)
chain: B1 chain with D40N, A78T

Key:
[1] = system: Proteinase K; experiment: Protease resistance of LATM2 (SDS-PAGE); settings: 5 μM Proteinase K, 30° C., 15 min, presence or absence of biotin
Description: Throughout the specification, “having protease resistance” refers to that a protein is not enzymatically decomposed or not substantially decomposed by protease treatment. The protease treatment is performed by, for example, proteinase K treatment at 30° C. for 15 min. The term “not enzymatically decomposed” refers to that bands of a tetramer, dimer, and/or monomer of the protein can be clearly detected by SDS-PAGE after enzyme treatment, as in wild-type TM2. That is, a protein not having protease resistance is decomposed into small molecules by protease treatment, and bands of the tetramer, dimer, and monomer are not detected by SDS-PAGE after the protease treatment. […] Accordingly, bands of the tetramer and/or the dimer or monomer generated by dissociation of the tetramer are detected by SDS-PAGE. […] of each of the LATM2s (TM2 S36A, TM2 […], TM2 […], TM2 […], TM2 […], TM2 S36A-[…], TM2 […], and […]) purified by biotin-agarose was subjected to a reaction in 50 mM Tris-HCl (pH 8.0) containing 5 μM Proteinase K and 5 mM CaCl2 at 30° C. for 15 min. […] Then, an SDS buffer was added to each reaction solution, followed by heat treatment at 95° C. for 10 min to terminate the reaction. The resulting sample was subjected to SDS-PAGE, followed by CBB staining.

[2] = Heat resistance of LATM2 by SDS-PAGE; type: physicochemical; settings: absence of biotin, 20 min in SDS sample buffer
Description: The heat resistance of LATM2s was investigated by SDS-PAGE. Each protein was heat treated at predetermined temperatures for 20 min in an SDS sample buffer in the presence or absence of biotin and was then subjected to SDS-PAGE, followed by CBB staining. The heating temperatures in a biotin-free experimental system were 80° C., 82° C., 84° C., 86° C., 88° C., 90° C., 92° C., and 94° C., and heating temperatures in a biotin-containing experimental system were 86° C., 88° C., 90° C., 92° C., 96° C., 98° C., and 100° C.

[3] = Purification of LATM2 with 2-iminobiotin-agarose; type: binding; settings: for Recovery rate (%): Iminobiotin-agarose, binding at pH 12, elution with 50 mM NH4OAC (pH 4)
Description: LATM2 was purified through a column charged with 2-iminobiotin-agarose (manufactured by Sigma-Aldrich Corp.) in accordance with the method by Hofmann, et al., (1980). IPTG was added to 25 mL of a culture solution of E. coli transformed with each LATM2 in a final concentration of 1 mM to induce expression. The E. coli cells were collected by centrifugation, suspended in 1.5 mL of 50 mM CAPS (pH 12) containing 50 mM NaCl, and then sonicated. To the supernatant of the disrupted cells, 500 μL of 2-iminobiotin-agarose was added, which was then packed in a column. The column was sufficiently washed with 50 mM CAPS (pH 12) containing 500 mM NaCl, and elution was then performed with 50 mM NH4OAC (pH 4).
(§1) The recovery rate in Table 2 was calculated by dividing the amount of LATM2 protein after purification by the amount of LATM2 protein before purification and was expressed by percent by multiplying the quotient by 100. The degree of purification was the ratio of the amount of LATM2 protein to the total amount of proteins in the purified fraction and was expressed by percent by multiplying the ratio by 100. The recovery rates and the degrees of purification in biotin-agarose were the results after binding at pH 7 and elution with an excess amount of biotin.

[4] = Purification of LATM2 with biotin-agarose; type: binding
Description: Purification with biotin-agarose (manufactured by Sigma-Aldrich Corp.) was performed by the following procedure. After induced expression of 25 mL of a culture solution of E. coli for each LATM2, the E. coli cells were suspended in 1.5 mL of a 100 mM potassium phosphate buffer (pH 7.0), and then sonicated. To the supernatant of the disrupted cells. 400 μL of biotin-agarose was added, which was followed by upside-down mixing for 1 hr. […]
In TM2 S36A-T78A-D116A, the E. coli cells were suspended in 1.5 mL of 50 mM CAPS (pH 12) containing 50 mM NaCl, and then sonicated. To the disrupted cells, 400 μL of biotin-agarose was added, which was followed by upside-down mixing for 1 hr. The column was sufficiently washed with 50 mM CAPS (pH 12) containing 500 mM NaCl, and elution was then performed with 1 mL of PBS (pH 7.4) containing 10 mM biotin.
In TM2 S36A-D116A, the E. coli cells were suspended in 1.5 mL of a 100 mM potassium phosphate buffer (pH 4.0), and then sonicated. To the pupernatant of the disrupted cells, 400 μL of biotin-agarose was added. Washing was performed with a 100 mM potassium phosphate buffer (pH 4) containing 500 mM NaCl, and elution was performed with 1 mL of PBS (pH 7) containing 10 mM biotin. Biotin binding to LATM2 that has been eluted with an excess amount of biotin was removed by dialysis with a 20 mM potassium phosphate buffer overnight.
as §1

[5] = Subunit association by FPLC on Sephacryl S-100HR; type: physicochemical; settings: for Structure (identified by FPLC): Sephacryl S-100HR, 50 mM potassium phosphate, 500 mM NaCl; for Sephacryl (mL), elution peak position: tetramer 44 to 47 mL, dimer 51 to 54 mL, monomer 63 to 66 mL
Description: In order to analyze the subunit association conditions of LATM2, the molecular weight of each LATM2s was measured by FPLC. Sephacryl S-100HR (manufactured by GE Healthcare) was used as a column, a Gel Filtration Calibration Kit LMW (manufactured by GE Healthcare) was used as molecular weight markers, and 50 mM potassium phosphate containing 500 mM NaCl was used as a buffer.
The positions of the peaks of eluted tetramer were defined to be 44 to 47 mL after injection of WT-TM2 as a control. The peak of an eluted monomer appeared at around 63 to 66 mL and the peak of an eluted dimer appeared at around 51 to 54 mL, from result of loading the molecular weight markers.

[6] = pH-dependence of binding to biotin-agarose
Description: E. coli cells were collected from 25 mL of an E. coli culture solution in which expression TM2 S36A-D116A was induced with 1 mM IPTG, were suspended in 1.5 mL of a 100 mM potassium phosphate buffer ([…]) or 1.5 mL of a 50 mM CAPS (pH 12.0), and then were sonicated. The disrupted cells were centrifugated, and 400 μL of biotin-agarose was added to the supernatant. […] Furthermore, the TM2 S36A-D116A protein was dissociated from the carrier by increasing the pH of the reaction solution to 7.0 or 12.0 and was recovered at an efficiency of 95%.
TM2 S36A-T78A-D116A was also investigated for its pH-dependence. The protein was suspended in a buffer of pH 4.0 or pH 12.0 and was sonicated. […] By utilizing this property, high purity TM2 S36A-T78A-D116A was obtained by binding the protein to biotin-agarose at pH 4.0 and eluting it at pH 7.0 (FIG. 3B).

[7] = Biotin-binding ability of TM2 D40N
[8] = Biotin-agarose, binding at pH 7, recovery with 10 mM biotin

| Molecule | decomposition by Proteinase K [1] | Tr value (temperature at which ratio monomer:tetramer becomes 1:1) [2] [°C] | Recovery rate (%) [3] [%] | Recover rate (%) [4, 8] | Structure (identified by FPLC) [5] | Sephacryl (mL), elution peak position [5] [mL] | binding to 2-iminobiotin-agarose [3] | other results |
| --- | --- | --- | --- | --- | --- | --- | --- | --- |
| B1 | hardly decomposed | 88 | 10 | about 95% | tetramer | 45.71 | – | recovery rates compared with WT ([3]; purification with 2-iminobiotin-agarose): inferior to WT; Recover rate (%) ([4]; Biotin-agarose, binding at pH 7, recovery with 10 mM biotin, listed as T78A): 95%; Structure (identified by FPLC) ([5]; listed as T78A): Tetramer |
| B2 | hardly decomposed | 78 | 95 | 0% | Tetramer | 46.23 | – | binding to biotin-agarose [4]: efficiently adsorbs to biotin-agarose; elution from biotin-agarose with an excess amount of biotin [4]: not eluted; Note (Biotin-agarose) ([4]; binding at pH 7, recovery with 10 mM biotin, FT = flow-through): not eluted |
| B3 | approximate a half thereof was decomposed | – | 0 | 0% | Tetramer | 46.31 | did not bind | recovery rate by binding at pH 4, elution at pH 7 (without biotin) ([4]; Biotin-agarose): 95%; recovery rate by binding at pH 4, elution at pH 7 (without biotin) ([4]; Biotin-agarose, listed as S36AD116A): recovery rate: 95%; binding to biotin-agarose ([6]; extract at pH 4.0, pH 5.0, or pH 6.0): efficiently bound to biotin-agarose; binding to biotin-agarose ([6]; extract at pH 7.0 or pH 12.0): did not bind to biotin-agarose at all; recovery efficiency on dissociation from the carrier ([6]; increasing the pH to 7.0 or 12.0): 95% |
| B4 | hardly decomposed | – | 0 | 0% | dimer | 51.06 | did not bind | recovery rate by binding at pH 4 or 12, elution at pH 7 (without biotin) ([4]; Biotin-agarose): recovery rate: 95%; binding to biotin-agarose ([6]; pH 4.0 or pH 12.0): confirm its binding to biotin-agarose; binding to biotin-agarose ([6]; pH 7.0): did not bind to biotin-agarose at all; Structure (identified by FPLC) ([5]; listed as S36AT78AD116A): Dimer |
| B5 | – | – | – | – | – | – | – | biotin-binding ability relative to TM2 [7]: increases |
